To fix the notation:
B1: Chi23 (Pseudoalteromonas aurantia; G79A) (protein)
chain: MSKTITYYNSGAVPLINASELPYDVVNLAFLSSSSNNPFNLVLSGAIAATESSFTTNTIEAIKVMQHKGQKVLISFGGATMGSNAYRSLSEDTAKLADSLASFVKNNQLDGVDIDYEDTAAFTGQAGYDGAQFLISLTQELRKRLPSPDYIISHAPQPPYLEQGGYMAGYVEVVELVGQEIDWLNVQFYNNPPWSANPDQIVSSYLNYTKLPNMSPEKVIAGFPVTQNDAGSGYMPVQTIINEVIKPIQQQSSLGGIMNWQFSSDHNGDWIKAIAQSLNS
notes: pET22b NdeI/XhoI, His-tagged (C-terminal by primer design), E. coli BL21(DE3); monomer; forward primer encodes MSKTITYYNS, reverse primer encodes AQSLNS at the C-terminus
B2: Chi23 (Pseudoalteromonas aurantia; Q261A) (protein)
chain: MSKTITYYNSGAVPLINASELPYDVVNLAFLSSSSNNPFNLVLSGAIAATESSFTTNTIEAIKVMQHKGQKVLISFGGGTMGSNAYRSLSEDTAKLADSLASFVKNNQLDGVDIDYEDTAAFTGQAGYDGAQFLISLTQELRKRLPSPDYIISHAPQPPYLEQGGYMAGYVEVVELVGQEIDWLNVQFYNNPPWSANPDQIVSSYLNYTKLPNMSPEKVIAGFPVTQNDAGSGYMPVQTIINEVIKPIQQQSSLGGIMNWAFSSDHNGDWIKAIAQSLNS
notes: as for B1
B3: Chi23 (Pseudoalteromonas aurantia; Q157A) (protein)
chain: MSKTITYYNSGAVPLINASELPYDVVNLAFLSSSSNNPFNLVLSGAIAATESSFTTNTIEAIKVMQHKGQKVLISFGGGTMGSNAYRSLSEDTAKLADSLASFVKNNQLDGVDIDYEDTAAFTGQAGYDGAQFLISLTQELRKRLPSPDYIISHAPAPPYLEQGGYMAGYVEVVELVGQEIDWLNVQFYNNPPWSANPDQIVSSYLNYTKLPNMSPEKVIAGFPVTQNDAGSGYMPVQTIINEVIKPIQQQSSLGGIMNWQFSSDHNGDWIKAIAQSLNS
notes: as for B1
B4: Chi23 (Pseudoalteromonas aurantia; D229A) (protein)
chain: MSKTITYYNSGAVPLINASELPYDVVNLAFLSSSSNNPFNLVLSGAIAATESSFTTNTIEAIKVMQHKGQKVLISFGGGTMGSNAYRSLSEDTAKLADSLASFVKNNQLDGVDIDYEDTAAFTGQAGYDGAQFLISLTQELRKRLPSPDYIISHAPQPPYLEQGGYMAGYVEVVELVGQEIDWLNVQFYNNPPWSANPDQIVSSYLNYTKLPNMSPEKVIAGFPVTQNAAGSGYMPVQTIINEVIKPIQQQSSLGGIMNWQFSSDHNGDWIKAIAQSLNS
notes: as for B1
B5: Chi23 (Pseudoalteromonas aurantia) (protein)
chain: MSKTITYYNSGAVPLINASELPYDVVNLAFLSSSSNNPFNLVLSGAIAATESSFTTNTIEAIKVMQHKGQKVLISFGGGTMGSNAYRSLSEDTAKLADSLASFVKNNQLDGVDIDYEDTAAFTGQAGYDGAQFLISLTQELRKRLPSPDYIISHAPQPPYLEQGGYMAGYVEVVELVGQEIDWLNVQFYNNPPWSANPDQIVSSYLNYTKLPNMSPEKVIAGFPVTQNDAGSGYMPVQTIINEVIKPIQQQSSLGGIMNWQFSSDHNGDWIKAIAQSLNS
notes: as for B1
B6: Chi23 (Pseudoalteromonas aurantia; N190A) (protein)
chain: MSKTITYYNSGAVPLINASELPYDVVNLAFLSSSSNNPFNLVLSGAIAATESSFTTNTIEAIKVMQHKGQKVLISFGGGTMGSNAYRSLSEDTAKLADSLASFVKNNQLDGVDIDYEDTAAFTGQAGYDGAQFLISLTQELRKRLPSPDYIISHAPQPPYLEQGGYMAGYVEVVELVGQEIDWLNVQFYANPPWSANPDQIVSSYLNYTKLPNMSPEKVIAGFPVTQNDAGSGYMPVQTIINEVIKPIQQQSSLGGIMNWQFSSDHNGDWIKAIAQSLNS
notes: as for B1
B7: Chi23 (Pseudoalteromonas aurantia; T80A) (protein)
chain: MSKTITYYNSGAVPLINASELPYDVVNLAFLSSSSNNPFNLVLSGAIAATESSFTTNTIEAIKVMQHKGQKVLISFGGGAMGSNAYRSLSEDTAKLADSLASFVKNNQLDGVDIDYEDTAAFTGQAGYDGAQFLISLTQELRKRLPSPDYIISHAPQPPYLEQGGYMAGYVEVVELVGQEIDWLNVQFYNNPPWSANPDQIVSSYLNYTKLPNMSPEKVIAGFPVTQNDAGSGYMPVQTIINEVIKPIQQQSSLGGIMNWQFSSDHNGDWIKAIAQSLNS
notes: as for B1
B8: Chi23 (Pseudoalteromonas aurantia; N9A) (protein)
chain: MSKTITYYASGAVPLINASELPYDVVNLAFLSSSSNNPFNLVLSGAIAATESSFTTNTIEAIKVMQHKGQKVLISFGGGTMGSNAYRSLSEDTAKLADSLASFVKNNQLDGVDIDYEDTAAFTGQAGYDGAQFLISLTQELRKRLPSPDYIISHAPQPPYLEQGGYMAGYVEVVELVGQEIDWLNVQFYNNPPWSANPDQIVSSYLNYTKLPNMSPEKVIAGFPVTQNDAGSGYMPVQTIINEVIKPIQQQSSLGGIMNWQFSSDHNGDWIKAIAQSLNS
notes: pET22b NdeI/XhoI, His-tagged (C-terminal by primer design), E. coli BL21(DE3); monomer; forward primer encodes …, reverse primer encodes AQSLNS at the C-terminus

Substrate in the data set: CC(=O)N[C@H]1[C@H](Oc2ccc3c(C)cc(=O)oc3c2)O[C@H](CO)[C@@H](O[C@@H]2O[C@H](CO)[C@@H](O)[C@H](O)[C@H]2NC(C)=O)[C@@H]1O
In words: fluorogenic substrate hydrolysis, Michaelis-Menten non-linear fit. The format is biochemical, Pseudoalteromonas aurantia. The conditions noted are these: McIlvaine's buffer pH 5.0, substrate 0.01-0.6 mM, temperature not given for kinetics. An excerpt: fluorogenic substrate hydrolysis, Michaelis-Menten non-linear fit on Chi23
Regarding B1, the Michaelis-Menten constant (Km) stood at 72.6 ± 6.9 µM, the Vmax is 0.0576 µmol/min/mg and the kcat amounted to 0.0295 ± 0.0013 s⁻¹.

Turning to B2, the Michaelis-Menten constant (Km) turned out to be 86.3 ± 6.6 µM, the maximal velocity (Vmax) is 0.0009 µmol/min/mg and the catalytic constant (kcat) turned out to be 0.0005 ± 2e-05 s⁻¹.

With B3, the Km turned out to be 104.1 ± 17.5 µM, the Vmax is 0.0044 µmol/min/mg and the turnover number (kcat) worked out at 0.0022 ± 0.0002 s⁻¹.

For the protein B4, the Michaelis-Menten constant (Km) came to 80.1 ± 6.3 µM, the Vmax came to 0.0027 µmol/min/mg and the kcat is 0.0014 ± 5e-05 s⁻¹.

B5: the Michaelis constant (Km) stood at 64.6 ± 11.7 µM, the Vmax came to 0.0107 µmol/min/mg and the kcat was found to be 0.0054 ± 0.0005 s⁻¹.

Turning to B6, the Michaelis constant (Km) came out at 77.4 ± 16.2 µM, the maximum rate (Vmax) was 4e-05 µmol/min/mg and the catalytic constant (kcat) amounted to 2e-05 ± 2e-06 s⁻¹.

As for B7, the Km turned out to be 85.6 ± 7.2 µM, the maximum rate (Vmax) was determined as 0.0144 µmol/min/mg and the catalytic constant (kcat) is 0.0073 ± 0.0003 s⁻¹.

Consider B8, for which the Km worked out at 90.1 ± 13.4 µM, the Vmax stood at 0.0042 µmol/min/mg and the kcat amounted to 0.0021 ± 0.0002 s⁻¹.

The term Km denotes the substrate concentration at which the rate is half of its maximum. Usually Vmax stands for the top rate of the reaction or transport when substrate is in excess. The kcat is the maximal rate divided by the concentration of active sites.
